“Also recorded” adds a separate entry of the source.
Tests used:
human tumor cell lines = conditions: several tumor cell lines, exogenously offered; Kempaiah and Kisiel 2008; cited from earlier work
HT-1080 cells [1] = assay: Localization of protein in stably-transfected overexpressing HT-1080 cells, immunoblotting and immunocytochemistry; assay type: cell-based, human; conditions: HT-1080 cells stably transfected with cDNA (FIG. 3, FIG. 4C, 4D)
Experimental: HT-1080 and HEK 293 cell lines were stably transfected to overexpress either wild-type human TFPI-2 or a mutant TFPI-2 construct lacking the carboxy-terminal tail (TFPI-2^1-188), and were maintained as described (Chand et al., Blood, 2004;103:1069-1077, Du et al., Arch. Biochem. Biophys:, 2003;417:96-104). An anti-human TFPI-2 murine monoclonal antibody designated as SK-9 was prepared as described (Du et al., Arch. Biochem. Biophys., 2003;417:96-104) and coupled to Affi-Gel 10 according to the manufacturer's recommendation. Recombinant human TFPI-2 was purified from HEK 293 serum-free conditioned media by a two-step chromatography procedure involving heparin-agarose (Sprecher et al., Proc. Natl. Acad. Sci. USA., 1994;91:3353-3357) and SK-9-AffiGel 10 affinity chromatography. In the latter procedure, heparin-agarose purified TFPI-2 was dialyzed against 50 mM Tris-HCl (pH 7.5) and applied to the SK-9-AffiGel 10 column equilibrated at room temperature with this buffer. After a wash step with 50 mM Tris-HCl (pH 7.5)/0.5 M NaCl, TFPI-2 was eluted with 0.1 M glycine (pH 2.5)/0.5 M NaCl into one-tenth volume of 1 M Tris-HCl (pH 8.8) to immediately neutralize the pH 2.5 glycine. […]

importin-α = assay: Co-immunoprecipitation assay of TFPI-2 with importin-α from HT-1080 cell lysates; assay type: binding, human; conditions: lysates of TFPI-2-treated (1 μM) HT-1080 cells or HT-1080 cells overexpressing TFPI-2; SK-9 or anti-importin-α antibody (FIG. 5)
Source text: To identify the adapter protein(s) involved in transporting TFPI-2 to the nucleus, we performed co-immunoprecipitation studies using the PROFOUND co-immunoprecipitation kit and cell lysates derived from either vehicle-treated HT-1080 cells, TFPI-2-treated HT-1080 cells or HT-1080 cells overexpressing TFPI-2. Approximately 4.5×10^6 cells from each system were washed twice with PBS, and the lysates prepared in the presence of proteinase inhibitors using the mammalian protein extraction reagent provided in the kit. Complexes of importin-α and TFPI-2 were removed from the lysate by co-immunoprecipitation according to the manufacturer's instructions. In this procedure, antibodies specific for either importin-α or TFPI-2 (SK-9) were covalently linked at room temperature for 16 hours to an amine-reactive gel in coupling buffer (8 mM sodium phosphate/2 mM potassium phosphate/10 mM KCl/140 mM NaCl [pH 7.4]). Cell lysates from the above preparations were added to the antibody-coupled columns and incubated at 4° C. for 18 hours with gentle end-over-end mixing. The columns were then washed several times with coupling buffer containing 0.5 M NaCl to remove non-specifically bound proteins, and finally eluted with the elution buffer provided in the kit. […]

HT-1080 cells [2] = assay: Internalization of offered recombinant proteins in HT-1080 cells, immunoblotting of cytosolic and nuclear fractions; assay type: cell-based, human; conditions: 1 μM
Experimental: HT-1080 cells were grown in six-well plates under standard conditions. At confluence, the cells were treated with fresh medium containing either wild-type TFPI-2, TFPI-2^1-188, R24Q KD1, R24K KD1, or R24K KD1-CT as previously described (Kempaiah and Kisiel, Apoptosis, 2008;13:702-715). Briefly, duplicate wells were treated with purified proteins (1 μM final concentration) and incubated at either 37° C. or 4° C. for different time periods. Two wells were also treated with phosphate-buffered saline (PBS) at each temperature to serve as a control. At selected time points, the media was removed and the cells were rinsed once with PBS. The cells were then washed with 1 M NaCl/PBS for 30 minutes with gentle shaking to dissociate cell surface-bound proteins (Iino et al., Arterioscler. Thromb. Vasc. Biol., 1998;18:40-46). Finally, the cells were rinsed once with PBS, trypsinized and harvested for the preparation of cell lysates and cell fractions.
To prepare total cell lysates, 1-3×10^6 cells were lysed by sonication in 500 μl of lysis buffer containing of 125 mM Tris-HCl (pH 6.8), 2% SDS, 10% glycerol, 50 mM sodium phosphate, 1 mM phenylmethanesulphonylfluoride (PMSF) and protease inhibitor cocktail. The lysate was kept on ice for about 10 minutes, centrifuged for 15 minutes at 10,000×g at 4° C., and the supernatant recovered. To prepare nuclear and cytosolic fractions, approximately 2×10^6 cells were harvested and washed twice with cold PBS by centrifugation at 600×g in a Beckman J-6M/E centrifuge for seven minutes at 4° C. Five volumes of ice cold cytosolic buffer (10 mM Hepes pH 7.4, 0.33 M sucrose, 1 mM MgCl2, 0.1% Triton X-100 and protease inhibitor cocktail) was added to the cells and incubated on ice for 15 minutes. The cytosolic fraction was collected by centrifugation at 900×g for five minutes at 4° C. The resulting undissolved pellet was washed twice with cytosolic buffer followed by centrifugation at 900×g for five minutes at 4° C. Finally, the resulting pellet was resuspended in five volumes of ice cold buffer containing 0.45 M NaCl in 10 mM Hepes (pH 7.4) and protease inhibitor cocktail. The suspension was incubated on ice for an additional 15 minutes to dissolve the nucleus, and subsequently centrifuged at 18,000×g for five minutes at 4° C. The resulting supernatant was collected as the nuclear extract. All samples were boiled for three minutes in the presence of 5% SDS and stored at −20° C. until use.
The cell lysate, cytosol and nuclear fractions were subjected to SDS-PAGE using 4-20% polyacrylamide gradient gels. […] The membranes were then probed with specific antibodies dissolved in fresh blocking buffer. Immunoreactive proteins were identified using HRP-conjugated secondary antibodies and a chemiluminescent reagent system essentially as described (Kempaiah et al., Mol. Cancer, 2007;6:20). The integrity of the cytosolic and nuclear fractions was verified using anti-α-tubulin and anti-histone-H1 antibodies, respectively (Guo et al., Am. J Physiol. Cell Physiol., 2007;292:2095-2102).
The relative intensity of the Western blot bands were quantified using QUANTISCAN software (Biosoft, Cambridge, U.K.). The intensities are reported in arbitrary units (A.U.) obtained by subtracting the background value from the corresponding band's mean value.

B1: TFPI-2: Human tissue factor pathway inhibitor-2, a 32 kDa Kunitz-type serine proteinase inhibitor (SEQ ID NO:1), recombinant from HEK 293 (protein, listed as Homo sapiens)
chain: DAAQEPTGNNAEICLLPLDYGPCRALLLRYYYDRYTQSCRQFLYGGCEGNANNFYTWEACDDACWRIEKVPKVCRLQVSVDDQCEGSTEKYFFNLSSMTCEKFFSGGCHRNRIENRFPDEATCMGFCAPKKIPSFCYSPKDEGLCSANVTRYYFNPRYRTCDAFTYTGCGGNDNNFVSREDCKRACAKALKKKKKMPKLRFASRIRKIRKKQF
modifications: tissue factor pathway inhibitor-2
- Induction of caspase-mediated apoptosis (human tumor cell lines): induce caspase-mediated apoptosis
- Localization of overexpressed protein (HT-1080 cells [1]): cytosolic and nuclear localization of TFPI-2
- Complex formation with importin-α (co-immunoprecipitation) (importin-α): complexes of TFPI-2 and importin-α were immunoprecipitated by each antibody; also recorded: formed complexes with importin-α
- Amount localized in the nucleus in 60 minutes at 4° C. (temperature dependence) (HT-1080 cells [2]; 4° C. versus 37° C. (FIG. 1C)): roughly equivalent to that observed in five minutes at 37 °C
- Time of maximal cytosolic and nuclear localization (HT-1080 cells [2]; 24-72 hours incubation): 48 h
- Intracellular distribution of internalized protein (HT-1080 cells [2]; 24-72 hours incubation, immunoblot (FIG. 1)): internalized and distributed in both the cytosolic and the nuclear fractions
- Rate of internalization and translocation to the nucleus (HT-1080 cells [2]; 37° C., within the first 15 minutes of offering (FIG. 1A)): rapidly internalized by these cells and translocated to the nucleus within minutes of offering; also recorded: rapidly internalized by HT-1080 cells and efficiently translocated to the nucleus
